In IntAct's records for PubMed 15791205:

B1: Angiotensin-converting enzyme 2 (Rattus norvegicus (Rat)), Q5EGZ1 (parent)
chain: MSSSCWLLLSLVAVATAQSLIEEKAESFLNKFNQEAEDLSYQSSLASWNYNTNITEENAQKMNEAAAKWSAFYEEQSKIAQNFSLQEIQNATIKRQLKALQQSGSSALSPDKNKQLNTILNTMSTIYSTGKVCNSMNPQECFLLEPGLDEIMATSTDYNRRLWAWEGWRAEVGKQLRPLYEEYVVLKNEMARANNYEDYGDYWRGDYEAEGVEGYNYNRNQLIEDVENTFKEIKPLYEQLHAYVRTKLMEVYPSYISPTGCLPAHLLGDMWGRFWTNLYPLTTPFLQKPNIDVTDAMVNQSWDAERIFKEAEKFFVSVGLPQMTPGFWTNSMLTEPGDDRKVVCHPTAWDLGHGDFRIKMCTKVTMDNFLTAHHEMGHIQYDMAYAKQPFLLRNGANEGFHEAVGEIMSLSAATPKHLKSIGLLPSNFQEDNETEINFLLKQALTIVGTLPFTYMLEKWRWMVFQDKIPREQWTKKWWEMKREIVGVVEPLPHDETYCDPASLFHVSNDYSFIRYYTRTIYQFQFQEALCQAAKHDGPLHKCDISNSTEAGQKLLNMLSLGNSGPWTLALENVVGSRNMDVKPLLNYFQPLFVWLKEQNRNSTVGWSTDWSPYADQSIKVRISLKSALGKNAYEWTDNEMYLFRSSVAYAMREYFSREKNQTVPFGEADVWVSDLKPRVSFNFFVTSPKNVSDIIPRSEVEEAIRMSRGRINDIFGLNDNSLEFLGIYPTLKPPYEPPVTIWLIIFGVVMGTVVVGIVILIVTGIKGRKKKNETKREENPYDSMDIGKGESNAGFQNSDDAQTSF

Variants of: B1
Settings: with spike_sars S

| Variant | effect of a mutation on the interaction |
| --- | --- |
| N82M;F83Y;S84P | causing an interaction |
| N82M;F83Y;S84P;H353K | causing an interaction |
| H353K | causing an interaction |

Variants of: B1
Settings: with spike_sars S
Remark: another data set of the same source

| Variant | effect of a mutation on the interaction |
| --- | --- |
| N82M;F83Y;S84P;H353K | causing an interaction |
